Source: the DeepSol protein solubility set

experiment: soluble on expression in E. coli; label from the status in PepcDB or PDB records

Sequence | soluble on expression in E. coli
MSLKLFGTDGVRGKAGEFLDSFLAMRLAMAAGIYFKDKSITNNILVGKDTRRSGYMIENAIVSGLTSIGYNVIQIGPMPTPAIAFLTEDMRCDAGIMISASHNPYYDNGIKFFDAHGNKLSEDIEKKIEEIYFDDKLIQASKVDMEKIGQAKRIDDVIGRYIVSIKNSFPKDLTLKSLRVVLDVAHGAAYKVAPTVFKELGAEVIVMSDKPNGLNINENCGALHPANLAAEVKRLRADVGFAFDGDADRLVVVDEKGEVANGDSLLGVLALYLKEQGKLQSSVVATIMSNGALKEFLNKHGIELDTCNVGDKYVLEKLKANGGNFGGEQSGHIIFSDYAKTGDGLIAALQFSALMLSKKKSASSILGQVKPYPQLLTNLKIAEKKDLDKIKGLKELKKDLENKNINTLFRYSGTENLIRLLLEARDIKLLEKEMKNVVEFFKKALNGEGHHHHHH | not soluble
MSLKLILNTQINTKLREIDISNETELIMSNDFPVNKIAMTGKVGYADMQGQRGTMEDALIVDSNIGIYAIFDGHGGHIVSSLSAQRIHERLQSLQNGSEFRELITQAVDSVVGELKEKKVLGGSTMCLVRVGQDKIEVANIGDSRCVAILKDGTQRQLSNDHKPTYRPEVERIREKGSFVSKGRVQGRLAVARAIGDFAVLGIESVIEFTEIDKDIVSRIVIGCDGLYDVVSNEDCLKICNENQSAVTTAYKLRDRAFQRGSTDNISVIVVDCLEGHHHHHH | soluble
MSLKLLFFDTETTGVKPGSICQLSYILVDTSTKPQKTIGKNIFFTVDEMEPEAERIHGFSLEKLYELSEGMYFEDLYADFINDFLEADFIIGHNVQFDIKFLKHELLGLGEFFEPNNVFCTMKYYKDICKILRPTGDYKNPKLEEVIKHLNITDSEISETANKYFQGSGNYHDARFDTAATYLTVINGIKKGLIPRNYFTKLLEAEGHHHHHH | soluble
MSLKLLIEEFIPVEEISEEAKKEKLGNAKPPIFSLHYWWARKPLITARAAVLGALISKENLPMIVGNGDLKTNLLRILRIPKDINEGPRAHTQDPPAEYLKEAIIKTWGEIPTVLDPFAGGGSIPFEALRLGCNAVAVDYNPVAYLILKETLEYPKKYGMKLILEGHHHHHH | not soluble
MSLKLPDEEFKLALEVARARIKAKDKFSRSDLWFDLEGLRYATHEVVADYRGRRLKGQGVKSIADVSCGVGIQLIFFAKHGIRSVGIDIDPIKIEFAKRNAEKYGVEVEWVVGDALSPEIIEKVDAEVIFSDPARPPEVPERNLEDLLPSPLKIYEAYKHKTDSFIFDLPPQIRREKVPWKGEFEYIDLFGHVNRLTEGHHHHHH | not soluble
MSLKLSAREWKDFSLEELFTVRGTKTTPLIILRKNNKKREKQLPYVTTKSTYNGIDDFFSGFTEEGNVITIDSATDGYVFYQLNNFSASDHVEKLIPKFKLNKYIALFLVNCIKKATKCKYGYGYKFSQTRIKRQKIMLPASNNQPDFQFMERYIKEKHFNLKSRIKEKQNHEINDWRELDDVEWTPFSTSEVFNNIQRGKRLTKSNQIKGLTPYISSSGINNGLDNFISNNEKIREFDNCLTIANSGSVGSAFYHTYRFIASDHVTHLKNNNLNKFSYLFIANMLRRLEGKYSFNRGINDFRIKRERILLPTKNNRPEYEFMEQYMKRKENEILDRLEGHHHHHH | not soluble
MSLKNARLHVINPDEVATSVLFRLLAPTGIESRHYPCAEDFLNQYQANGPACLLVDMLLPDWGPLRLLGELKRRQIHHPCIFMSYRCEEQTLMELLEQQAFAFIKKPLNQVKLTELIQVAMGQDQKEGHHHHHH | not soluble
MSLKNLDINIVSEVRRIDNGRLDIPVYFSVCGDDASQYTGTKKQMGKGASPIQSEASACMELAERFSFFSFSKNADNFLLGDYEEMRAAGYPVLDMEHLLKSVHDTHTTVAQLEKLLAGIPMQWTWATKMTGEEGEVLIPFSWFFAINEFNGPSAGNTQEEAALQGLCEIVERDVCSRINRDKLPTAKIDVETIKDPVAVELLEKFAKNNIEVYLNDFSLETGIASVGALAIDRSTFPEKSEIVYTAGTTPNPEKAIIRAITEVAQLAGDFNTGSNYIASGLPKPLSMSEVTYLTETADQVTIDEMVDISDDNIYTEVKNCLDSLKNNGFDVYMIDVCHPQLQIPALYTIIPGAHFRERSMICNAGLFCAKLLVERIEDPAEQEVKLGEMSVLEGHHHHHH | not soluble
MSLKNNEKLIKWLFDTNAIRVCPKDKPFWYTSGTIGPYYINTHFLYGSEEKANKLLEFIDKEKENILKCPDRILEETMKNYQSDPIYRGLIDEMCDFIKNNIDVNEVDYISGGERRDWFFSPIIAKLLNKPHITIYKDLTTVVSSDGKTEELKELNGESVLHIADLITEASSYERAWIPAIKNNGGRIKWSVVVVDRKQGGAELLKSYDIKSFSMVDIDEGHHHHHH | soluble
MSLKNPPQILMPDVVYTDLKKPILVHIKDDESSIKNVQIILHKDDNTSAMVIADEKISNLKDITLQVALPKFGYKENVKSFVLEVIAKDSSFWNFFSGNEARKQIAVLVDNTAPKINIISNSYQIEQGGAGAVVFKADDANLDKVYIETNKGKIFKATPYVKEGYYAALIAWDARDEEFRAFVIATDKAGNISKERIRYYFVNRKYRVSNINLTDKFLDGKIENLANQYAPKDNNLNRYEKFKFVNETLRNSNEKLIHEITSKVPEEKIDNFDLNLFLPLKNGMKVADFADHRYYSYNGQFVSDSYHMGLDLASVAQAPIISNNAGKVVFAAENGIYGLNLIVYHGFGVYSLYGHCSSKNVDLDEMINKQSIIGKTGTSGLALGDHLHFGVLVQGVETRPEQWQDKKWIENNIYNVLNDGKKIILGKNEGHHHHHH | soluble
MSLKNTGYILALCLTASGHVLAHDVWITGKQAENNVTAEIGYGHNFPSKGTIPDRRDFFENPRLYNGKETITLKPASTDYVYKTESASKDNGYVLSTYMKPGYWSRTSSGWKPVSREGRNDVAYCEFVTKYAKSFIPGEQQMPAQLYQSPTGHELEIIPLSDISRFSENVKLKVLYKTSPLAGAIMELDSVSYLTSSRHTHAVEHKHPVHKAELTFVTNEDGIVTVPSLHIGQWLAKVQNKKSFQDKSLCDETVDVATLSFSRNEGHHHHHH | soluble
MSLKPESPNQDDFIIITMENLALYAIFDGHGPYGHDVSNYVQKELPYMIIKNENFLKNPKEVFTKAFLNIHENIERTTNAYLDSFTNKNSDSTMSGTTATIIVHLFKEKKLYVAYVGDSRAVLGKRKNGSKQLSAVELTKDHKPNCAAEKKRILSSGGQVMKLEGDIPYRVFIKNKFYPGLAMSRAIGDTIGHQIGIIAEPDFIEVNINEDEDILVLICSDGVWEFISSEEAVNLIYEFGYNNVQDAVENLARESWDRWLNEEENIVDDITIQAIYLSEKSKYLKEGHHHHHH | not soluble
MSLKPIIPEDERSKEPLDTDRVIYHPDMIRANEWVLNEYEAPYRELCIFVPCAKRKPYHESPSHKKFDRIIFGIAKPEDVHIVTFGTCGITPRELDTQYPFMHYSFMMGKCNVAKIKRDFIKMESERLAAYLEKTRDNYKHRIAYCIGDFRTAMEKAVEMVDVEVDIVPRESTIQKMIQPDKPFIYNSLSSREYLQDFSDAITDALKLPKRKVGLKEDLSVDDADWYLLEGHHHHHH | soluble
MSLKPTIYDIAKKANVSKSTVSRVLNNQPNISDKAKASVLQAIKELNYEPSKIARGLSGNGFDAILALSHRTSHTTYGNPFFSDVIQSISAVSEQNNFDLILQTAKTPEEELEKCAKKIQEKMIRGIIILSSTMDETLLFELDQYNIPIVVIGKVGNDYTNIYSVDTDNFQDSYDLVETLIKNGHRHIGCLHAPTEVYVSNDRLNGYRQCLFDHHLDIRNEWIIDGGFRLEDSMAAMNDLMKLRERPTAIFSTDALKSLSIYKVAEQSGKQIPDDLSIAGFSDPLLSSLFSPQLTRIDIPTNQLGIKATELLFQLIHHQYPEEKRIILSTEITLTDSIEGHHHHHH | not soluble
MSLKQINIQKFITAKRIAKYSSLESYKLNILESQKYYSSLSILEVSLRNAIDFYFTERYGESWTDLLDIFKYKEISKIEEAKNFLKLKQEECTKDKIVAELNFGFCTSLFSKTYEEQMRKNNLIKIFNNLPKNKQINRAYLSRKLNNIRNFRNRIFHYEKIINKPEYLNIENDINEILEFLDKEILGFSIGLNIEGHHHHHH | soluble
MSLKRMLAEFEKIQAILMAFPHEFSDWAYCIKEARESFLNIIQTIAKHAKVLVCVHTNDTIGYEMLKNLPGVEIAKVDTNDTWARDFGAISIENHGVLECLDFGFNGWGLKYPSNLDNQVNFKLKSLGFLKHPLKTMPYVLEGGSIESDGAGSILTNTQCLLEKNRNPHLNQNGIETMLKKELGAKQVLWYSYGYLKGDDTDSHTDTLARFLDKDTIVYSACEDKNDEHYTALKKMQEELKTFKKLDKTPYKLIPLEIPKAIFDENQQRLPATYVNFLLCNDALIVPTYNDPKDALILETLKQHTPLEVIGVDCNTLIKQHGSLHCVTMQLYEGGSHHHHHH | soluble
MSLKRVLAVQRISRDTEASSALTRQDEALTRAIRQGTYREVGRVVDATVSGAVHLDQRPSLRRWLAEPLVHEWDVLMVTEQDRITRDDMHWWHFVDWTLKNGKDVEVLDDPTFDIQSEDGRMLAGIKAAQAAKYRKAVQAKQLDRTQFFRENRLWNGGVWPFGYRAEVFSHLGERRKRLTVDPCTSRLVREAYDRLVHGEGTVYAVARDWNLRGVPSARDHQRREQNKDLPEQEHRPEKGTRWSVTPLRNILRSPALMGVMMHRSEPVLDAEGQPVVWAEPVLTSEEFAELQEVVLTEQRTAESGPGKRWRTPLLGVVFCMCGRPMYVRHQKNHLADGTTAVLTYYQCRSVSEMNRCEAPSTWRAESLCAVVERDFLDQAGDRTEMKRTYVPGRDHTAAIAELRSALANLTVAIGTATAPAAVAVLTRQMDEHARTITRLEAEPVVHARWKEEPTGAAYREQWRAVKDWESRAALLAKAGVRFFCEGTHKSGSVHMYLPSASQRRVSGVSLSKEAVEVVGIGPLEEEARRYFTDLRRTKGMGPGFWYSREGHHHHHH | not soluble
MSLKRYSGFLIDLDGTMYRGSEVITEAVAFVKQLEKQSASYLFVTNNSTKSPETVATLLKSMDVPATKEHVFTSSMAMASYLTRTKEFVRAFVIGEEGLLESLKESGMMVSEDEQPDYVVMGLDRAISYEKLAKAATYVRQGAKFFITNGDAALPTEKGLMPGNGSLAAVVATTTGVKPFVVGKPSPIIIEEALKRLGTTKEETLLIGDNYDTDILAGIHAGIDTLLVHTGVTTKEALKQKEAQPTYTCESLADWQRSIEEEGHHHHHH | soluble
MSLKSKEKLFIANVADSNLNEADKDKAKNEIAKLNASQVVATTLASSVRETEKQEKIETDICNENAISESKLDGIDDLEFVDENYYISPSLDTLATLSKYEIQKVENLVVGNKQYGKIEFLDPVDLSDIPLGSICDDLVVFQPMSVLLYNNSTNVPEKGKGLNVRARISCYNCYPLDKSTRKPIKDPNHRIMERYSEKLKKIPHTHFESYDPASGTYCFTVDHALEGHHHHHH | soluble
MSLKSQNTLWKIRKIWAKFQRYTISYKQEIIGTFNPQAQMILMNHQSALDIIALEELYPKNLCWIAKKELGEIPIFKVAMKKPKLLCIDRKNPRDLVRVLKEAKERISEDRVLAIFPEGTRSKNEKMLKFQSGAKILSEKLNLKVQPILIVDSAKILDTKSFSASSGVLKIICMDLVDTNDEKWLENTRKKMQELLDQERAKLCEGHHHHHH | not soluble
